Test results taken from US20260232732A1 (FUNDACI INSTITUT DE RECERCA CONTRA LA LEUC MIA JOSEP …, published 2026).
Blank lines part the entries; values can stand above or below the binder they belong to. Where no end group is shown, it is not given here. The star is where a group is joined. Biotin = O=C1N[C@H]2[C@H](CS[C@H]2CCCCC(=O)*)N1

Assays:
[1] = target: T1, Peptide 3-BSA (SSMEDYVNFN-C conjugated to BSA) (human); experiment: ELISA; Ab 0.01563 ug/mL; repII
T1 peptide: SSMEDYVNFNC(BSA)
Procedure: (§1) In brief, plates with each non-conjugated peptide (50 μg/mL) or BSA-conjugated peptide (5 μg/mL) were coated in 0.58M carbonate-bicarbonate buffer pH9.5, 100 μL/well, at 4° C. […] After washing, wells were incubated with the 3, 3′,5,5′-Tetramethylbenzidine (TMB) HRP substrate and reactions were stopped with 2M HCl and OD450 was recorded.

[2] = target: T2, Peptide 2-BSA (GSESTSSMED-C conjugated to BSA) (human); experiment: ELISA; Ab 0.125 ug/mL; repII
T2 peptide: GSESTSSMEDC(BSA)
Procedure: as §1

[3] = target: T3, Peptide 4, non-conjugated (SMEDYVNFNF-C) (human); experiment: ELISA; Ab 0.125 ug/mL; repII
T3 construct: With the extra C-terminal Cys
T3 peptide: SMEDYVNFNFC
Procedure: as §1

[4] = target: T4, BSA (negative control coating) (bovine, UniProt P02769 25-607); experiment: ELISA; Ab 0.125 ug/mL; repII
T4 construct: also called Negative control BSA
Procedure: as §1

[5] = target: T5, Peptide 3, non-conjugated (SSMEDYVNFN-C) (human); experiment: ELISA; Ab 0.125 ug/mL; repII
T5 construct: With the extra C-terminal Cys
T5 peptide: SSMEDYVNFNC
Procedure: as §1

[6] = target: T6, Peptide 4-BSA (SMEDYVNFNF-C conjugated to BSA) (human); experiment: ELISA; Ab 0.125 ug/mL; repII
T6 peptide: SMEDYVNFNFC(BSA)
Procedure: as §1

[7] = target: T7, Peptide 1, non-conjugated (MADDYGSEST-C) (human); experiment: ELISA; Ab 0.125 ug/mL; repII
T7 construct: With the extra C-terminal Cys
T7 peptide: MADDYGSESTC
Procedure: as §1

[8] = target: T8, Peptide 1-BSA (MADDYGSEST-C conjugated to BSA) (human); experiment: ELISA; Ab 0.125 ug/mL; repII
T8 peptide: MADDYGSESTC(BSA)
Procedure: as §1

[9] = target: T9, antigen peptide-BSA (immunisation peptide #1 MADDYGSESTSSMEDYVNFNF-C conjugated to BSA) (human, extra C-terminal Cys conjugated to BSA); experiment: ELISA; Ab 0.125 ug/mL; repII
T9 construct: also called Positive control antigen peptide-BSA; MADDY peptide
T9 peptide: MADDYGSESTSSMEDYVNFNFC
Procedure: as §1

[10] = target: T1, Peptide 3-BSA (SSMEDYVNFN-C conjugated …); experiment: ELISA; Ab 0.125 ug/mL; repII
Procedure: as §1

[11] = target: T10, Peptide 2, non-conjugated (GSESTSSMED-C) (human); experiment: ELISA; Ab 0.125 ug/mL; repII
T10 construct: With the extra C-terminal Cys
T10 peptide: GSESTSSMEDC
Procedure: as §1

[12] = target: T2, Peptide 2-BSA (GSESTSSMED-C conjugated …); experiment: ELISA; Ab 0.5 ug/mL; repI
Procedure: as §1

[13] = target: T3, Peptide 4, non-conjugated (SMEDYVNFNF-C); experiment: ELISA; Ab 0.5 ug/mL; repI
Procedure: as §1

[14] = target: T4, BSA (negative control coating); experiment: ELISA; Ab 0.5 ug/mL; repI
Procedure: as §1

[15] = target: T5, Peptide 3, non-conjugated (SSMEDYVNFN-C); experiment: ELISA; Ab 0.5 ug/mL; repI
Procedure: as §1

[16] = target: T6, Peptide 4-BSA (SMEDYVNFNF-C conjugated …); experiment: ELISA; Ab 0.5 ug/mL; repI
Procedure: as §1

[17] = target: T7, Peptide 1, non-conjugated (MADDYGSEST-C); experiment: ELISA; Ab 0.5 ug/mL; repI
Procedure: as §1

[18] = target: T8, Peptide 1-BSA (MADDYGSEST-C conjugated …); experiment: ELISA; Ab 0.5 ug/mL; repI
Procedure: as §1

[19] = target: T9, antigen peptide-BSA (immunisation …); experiment: ELISA; Ab 0.5 ug/mL; repI
Procedure: as §1

[20] = target: T1, Peptide 3-BSA (SSMEDYVNFN-C conjugated …); experiment: ELISA; Ab 0.5 ug/mL; repI
Procedure: as §1

[21] = target: T10, Peptide 2, non-conjugated (GSESTSSMED-C); experiment: ELISA; Ab 0.5 ug/mL; repI
Procedure: as §1

[22] = target: T11, biotin-peptide MEDYVNFNFT (human); experiment: ELISA biotin-peptide; scFv 0.625 ug/mL; repI
T11 peptide: Biotin-MEDYVNFNFT
Procedure: (§2) The peptides were synthesized naked or with a N-terminal Biotin modification with a purity of >98%. All four scFvs were verified by ELISA that can be detected with anti-His antibodies. ELISA was performed for scFv-peptide binding validation. Briefly, naked peptides were coated (50 μg/mL) in 0.58M carbonate-bicarbonate buffer pH9.5, 100 μL/well, 4° C. O/N. Then after blocking (3% BSA-PBS, 300 μL/well 37° C. 1.5 h) and washing (PBS+Tween-20 0.05% v/v (0.05% PBST), wells were incubated with each purified scFv antibody at concentration of 1 μg/mL in PBS at 37° C. 1 h. After washing (0.05% PBST), wells were incubated with secondary antibodies (goat anti-His IgG-HRP) in PBS, 37° C., 30 min. After washing, and incubation with TMB substrate, reactions were stopped with 2M HCl and reading was quantified at OD450.
(§3) ELISA with biotin-conjugated peptides (5 μg/mL) was performed very similar to described above with minor modifications.
(§4) A full curve ELISA was performed for each positive scFv/biotin-peptide pair in order to confirm previous results. Tables 15-17 show ELISA results of the dose-dependent full curve for each positive peptide with scFv “CCR9_HUM”, “Comp-2” and “Comp-3”, respectively.

[23] = target: T12, biotin-peptide SMEDYVNFNF (human); experiment: ELISA biotin-peptide; scFv 0.625 ug/mL; repI
T12 peptide: Biotin-SMEDYVNFNF
Procedure: as §2, §3, §4

[24] = target: T13, biotin-peptide SSMEDYVNFN (human); experiment: ELISA biotin-peptide; scFv 0.625 ug/mL; repI
T13 peptide: Biotin-SSMEDYVNFN
Procedure: as §2, §3, §4

[25] = target: T14, biotin-peptide TSSMEDYVNF (human); experiment: ELISA biotin-peptide; scFv 0.625 ug/mL; repI
T14 peptide: Biotin-TSSMEDYVNF
Procedure: as §2, §3, §4

T4 sequence (P02769 25-607 limits assumed): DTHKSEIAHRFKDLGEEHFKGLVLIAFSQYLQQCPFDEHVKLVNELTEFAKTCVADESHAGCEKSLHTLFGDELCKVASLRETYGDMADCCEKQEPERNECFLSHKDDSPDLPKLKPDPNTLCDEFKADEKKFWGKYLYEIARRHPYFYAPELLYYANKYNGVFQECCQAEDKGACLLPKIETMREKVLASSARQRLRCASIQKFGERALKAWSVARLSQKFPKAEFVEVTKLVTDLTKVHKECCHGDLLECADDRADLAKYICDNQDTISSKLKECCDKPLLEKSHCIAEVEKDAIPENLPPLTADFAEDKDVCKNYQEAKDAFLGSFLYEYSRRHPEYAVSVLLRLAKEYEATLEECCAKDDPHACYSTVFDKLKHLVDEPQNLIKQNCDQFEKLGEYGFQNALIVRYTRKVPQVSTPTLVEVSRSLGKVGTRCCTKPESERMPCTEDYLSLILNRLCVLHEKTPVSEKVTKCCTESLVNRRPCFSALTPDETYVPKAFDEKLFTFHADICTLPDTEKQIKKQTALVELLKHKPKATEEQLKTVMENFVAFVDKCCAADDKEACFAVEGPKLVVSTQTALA

OD450 [1]: 1.34 OD
OD450 [2]: 0.01 OD
OD450 [3]: 1.84 OD
OD450 [4]: 0.01 OD
OD450 [5]: 1.77 OD
OD450 [6]: 2.39 OD
OD450 [7]: 0.02 OD
OD450 [8]: 0.01 OD
OD450 [9]: 2.31 OD
OD450 [10]: 1.97 OD
OD450 [11]: 0.01 OD
OD450 [12]: 0.02 OD
OD450 [13]: 2.29 OD
OD450 [14]: 0.02 OD
OD450 [15]: 1.94 OD
OD450 [16]: 2.67 OD
OD450 [17]: 0.01 OD
OD450 [18]: 0.03 OD
OD450 [19]: 2.44 OD
OD450 [20]: 2.03 OD
OD450 [21]: 0.02 OD
B1: anti-CCR9 antibody clone 115 (murine, from hybridoma #115) (antibody, V domains shown)
VH: QVQLKQSGPELVKPGTSVRVSCTASGYSFTDYIIYWVKQSHGRSLEWIGYIDPNNYNTRYSQKFKGKATLTVDKSSTSAFMHLNSLTSDDSAVYYCARDVYWGQGTTLTVSS
VL: DVVMTQTPLSLTVSLGDQASISCRSSQSLVHSNGKTYLQWYLQKPGQSPKLLIYKVSNRFSGVPDRFSGSGSGTDFTLKISRVEAEDLGVYFCAQSTHVWTFGGGTKLEIKR
notes: Mouse IgG1

OD450 [22]: 1.53 OD
OD450 [23]: 1.71 OD
OD450 [24]: 1.73 OD
OD450 [25]: 0.78 OD
B2: CCR9_HUM2 scFv (humanized anti-CCR9 scFv, SEQ ID NO: 17 with C-terminal 6xHis tag) (scFv)
scFv: QVQLVQSGAEVKKPGASVKVSCTASGYSFTDYIIYWVKQAHGQSLEWMGYIDPNNYNTRYSQKFQGKVTITVDKSSTSAYMELNSLTSDDTAVYYCARDVYWGQGTTVTVSSGGGGSGGGGSGGGGSGGGGSDVVMTQTPLSLSVTPGQPASISCRSSQSLVHSNGKTYLQWYLQKPGQSPKLLIYKVSNRFSGVPDRFSGSGSGTDFTLKISRVEAEDVGVYFCAQSTHVWTFGGGTKVEIKRAHHHHHH
